In FireProtDB:

Settings: whole UniProt chain shown
[1] = Bacillus caldolyticus, pH 7, Thermal, CD, sodium cacodylate 100 mM, NaCl 2 M, reversible: yes
[2] = Bacillus caldolyticus, pH 7, Thermal, CD, sodium cacodylate 100 mM, reversible: yes
[3] = Bacillus licheniformis (strain ATCC 14580 / DSM 13 / JCM 2505 / CCUG 7422 / NBRC 12200 / NCIMB 9375 / NCTC 10341 / NRRL NRS-1264 / Gibson 46…, pH 7, Thermal, CD, Hepes 10 mM, reversible: Yes
[4] = Bacillus subtilis (strain 168), pH 6, 27 °C, Thermal, CD, sodium phosphate 50 mM, reversible: yes
[5] = Bos taurus, pH 2, Thermal, CD, KCl-HCl 0.1 M, reversible: yes
[6] = Bos taurus, pH 2, Thermal, CD, Sodium phosphate 0.2 M, reversible: yes
[7] = Bos taurus, pH 2, Thermal, DSC, KCl-HCl 0.1 M, reversible: yes
[8] = Bos taurus, pH 6.2, 25 °C, 2-Propanol, CD, Piperazine Unknown, NaCl 30 mM, transition: 2, reversible: Yes
[9] = Bos taurus, pH 5, Thermal, CD, Tris-acetate 0.01 M, reversible: yes
[10] = Bos taurus, pH 8.4, Thermal, CD, Tris-acetate 0.01 M, reversible: no
[11] = Bos taurus, pH 5.3, 5 °C, GdnHCl, CD, Sodium acetate 0.02 M, reversible: yes

B1: Cold shock protein CspB wild type, P41016 (protein)
chain: MQRGKVKWFNNEKGYGFIEVEGGSDVFVHFTAIQGEGFKTLEEGQEVSFEIVQGNRGPQAANVVKL
unfolding free energy (Bacillus caldolyticus, pH 7, 60 °C, Thermal, CD, sodium cacodylate 100 mM, NaCl 2 M, reversible: yes): 3.37 kcal/mol
unfolding free energy (Bacillus caldolyticus, pH 7, 60 °C, Thermal, CD, sodium cacodylate 100 mM, reversible: yes): 2.44 kcal/mol
Tm [1]: 84.4 °C
unfolding enthalpy (van 't Hoff) [1]: 61.4 kcal/mol
Tm [2]: 76.9 °C
unfolding enthalpy (van 't Hoff) [2]: 58.6 kcal/mol

B2: Protein GrpE wild type, Q65H53 (protein)
chain: MAEEKQNEELNEQEELNETEAETAEAEQTAAEADAPAEETQTEMLEKQLKELQERLEEKENKLLRVQADFENYKRRARLDLEAAEKYRSQRIISDLLPALDNFERALQIDPDNEQTKSLLQGMEMVHRQILEALKNEGVEQIPSVGEQFDPNMHQAVMQVEDEAYESNAVVEELQKGYKLKDRVIRPSMVKVNQ
Tm [3]: 52 °C
unfolding enthalpy (van 't Hoff) [3]: 99.9 kcal/mol

B3: Chemotaxis protein CheY wild type, P24072 (protein)
chain: MAHRILIVDDAAFMRMMIKDILVKNGFEVVAEAENGAQAVEKYKEHSPDLVTMDITMPEMDGITALKEIKQIDAQARIIMCSAMGQQSMVIDAIQAGAKDFIVKPFQADRVLEAINKTLN
heat capacity change of unfolding [4]: 2.34 kcal/mol/K
unfolding free energy [4]: 3.14 kcal/mol
Tm (Bacillus subtilis (strain 168), pH 6, Thermal, CD, sodium phosphate 50 mM, reversible: yes): 54.9 °C

B4: Cytidine deaminase wild type, P19079 (protein)
chain: MNRQELITEALKARDMAYAPYSKFQVGAALLTKDGKVYRGCNIENAAYSMCNCAERTALFKAVSEGDTEFQMLAVAADTPGPVSPCGACRQVISELCTKDVIVVLTNLQGQIKEMTVEELLPGAFSSEDLHDERKL
unfolding free energy (Bacillus subtilis (strain 168), pH 7, 25 °C, GdnHCl, CD, potassium phosphate 20 mM, reversible: no): 2.5 kcal/mol

B5: FMN-dependent NADPH-azoreductase wild type, O07529 (protein)
chain: MNMLVINGTPRKHGRTRIAASYIAALYHTDLIDLSEFVLPVFNGEAEQSELLKVQELKQRVTKADAIVLLSPEYHSGMSGALKNALDFLSSEQFKYKPVALLAVAGGGKGGINALNNMRTVMRGVYANVIPKQLVLDPVHIDVENATVAENIKESIKELVEELSMFAKAGNPGV
Tm (Bacillus subtilis (strain 168), pH 7.5, Thermal, CD, Tris-HCl 100 mM, reversible: No): 86.5 °C

B6: 3-isopropylmalate dehydrogenase wild type, P05645 (protein)
chain: MKKRIALLPGDGIGPEVLESATDVLKSVAERFNHEFEFEYGLIGGAAIDEHHNPLPEETVAACKNADAILLGAVGGPKWDQNPSELRPEKGLLSIRKQLDLFANLRPVKVFESLSDASPLKKEYIDNVDFVIVRELTGGLYFGQPSKRYVNTEGEQEAVDTLFYKRTEIERVIREGFKMAAARKGKVTSVDKANVLESSRLWREVAEDVAQEFPDVKLEHMLVDNAAMQLIYAPNQFDVVVTENMFGDILSDEASMLTGSLGMLPSASLSSSGLHLFEPVHGSAPDIAGKGMANPFAAILSAAMLLRTSFGLEEEAKAVEDAVNKVLASGKRTRDLARSEEFSSTQAITEEVKAAIMSENTISNV
Tm (Bacillus subtilis (strain 168), pH 7.6, Thermal, CD, Potassium phosphate 20 mM, reversible: yes): 56 °C

B7: Beta-lactoglobulin wild type, P02754 (protein)
chain: MKCLLLALALTCGAQALIVTQTMKGLDIQKVAGTWYSLAMAASDISLLDAQSAPLRVYVEELKPTPEGDLEILLQKWENGECAQKKIIAEKTKIPAVFKIDALNENKVLVLDTDYKKYLLFCMENSAEPEQSLACQCLVRTPEVDDEALEKFDKALKALPMHIRLSFNPTQLEEQCHI
Tm [5]: 78 °C
heat capacity change of unfolding [5]: 1.33 kcal/mol/K
unfolding enthalpy (van 't Hoff) [5]: 74.6 kcal/mol
Tm [6]: 91 °C
heat capacity change of unfolding [6]: 1.35 kcal/mol/K
unfolding enthalpy (van 't Hoff) [6]: 88.8 kcal/mol
Tm [7]: 77.8 °C
heat capacity change of unfolding [7]: 1.33 kcal/mol/K
unfolding enthalpy (calorimetric) [7]: 74.7 kcal/mol
Tm (Bos taurus, pH 3, Thermal, DSC, phosphate 20 mM, reversible: yes): 77 °C
denaturant m value [8]: 0.9 kcal/mol/M
denaturant midpoint (higher = more stable) [8]: 4 M
unfolding free energy [8]: 3.8 kcal/mol
unfolding free energy (Bos taurus, pH 6.85, 25 °C, Urea, CD, Phosphate 0.01 M, chloride 0.2 M): 6.99 kcal/mol
unfolding free energy (Bos taurus, pH 6.85, 25 °C, Urea, CD, Phosphate 0.01 M, citrate 0.2 M): 9.79 kcal/mol
unfolding free energy (Bos taurus, pH 6.85, 25 °C, Urea, CD, Phosphate 0.01 M, phosphate 0.2 M): 9.18 kcal/mol
unfolding free energy (Bos taurus, pH 6.85, 25 °C, Urea, CD, Phosphate 0.01 M, sulfate 0.2 M): 8.8 kcal/mol
unfolding free energy (Bos taurus, pH 6.85, 25 °C, Urea, CD, Phosphate 0.01 M, tartrate 0.2 M): 7.58 kcal/mol
unfolding free energy (Bos taurus, pH 7.1, 30 °C, GdnHCl, CD, phosphate 0.11 M, NaCl 0.04 M): 11.2 kcal/mol

B8: Seminal ribonuclease wild type, P00669 (protein)
chain: MALKSLVVLPLLVLVLLLVRVQPSLGKESAAAKFERQHMDSGNSPSSSSNYCNLMMCCRKMTQGKCKPVNTFVHESLADVKAVCSQKKVTCKNGQTNCYQSKSTMRITDCRETGSSKYPNCAYKTTQVEKHIIVACGGKPSVPVHFDASV
Tm [9]: 61.6 °C
unfolding enthalpy (van 't Hoff) [9]: 151 kcal/mol
Tm [10]: 65.2 °C
unfolding enthalpy (van 't Hoff) [10]: 199 kcal/mol

B9: Acyl-CoA-binding protein wild type, P07107 (protein)
chain: MSQAEFDKAAEEVKHLKTKPADEEMLFIYSHYKQATVGDINTERPGMLDFKGKAKWDAWNELKGTSKEDAMKAYIDKVEELKKKYGI
denaturant m value [11]: 2.7 kcal/mol/M
denaturant midpoint (higher = more stable) [11]: 2.36 M
unfolding free energy [11]: 6.1 kcal/mol

B10: Serine protease 1 wild type, P00760 (protein)
chain: MKTFIFLALLGAAVAFPVDDDDKIVGGYTCGANTVPYQVSLNSGYHFCGGSLINSQWVVSAAHCYKSGIQVRLGEDNINVVEGNEQFISASKSIVHPSYNSNTLNNDIMLIKLKSAASLNSRVASISLPTSCASAGTQCLISGWGNTKSSGTSYPDVLKCLKAPILSDSSCKSAYPGQITSNMFCAGYLEGGKDSCQGDSGGPVVCSGKLQGIVSWGSGCAQKNKPGVYTKVCNYVSWIKQTIASN
unfolding free energy (Bos taurus, pH 5.8, 25 °C, GdnHCl, Fluorescence, MES 0.1 M): 10.9 kcal/mol
